The results in this text go back to patent publication US20220033505A1 (Janssen / Centocor, published 2022).

The labels stand for the following.
B1: HC3B125 (CD3B376-Fab-Fc x MHGB732-LH-scFv-Fc, no C-terminal Lys) (bispecific antibody, human IgG1, lambda, L234A L235A)
heavy: QVQLQQSGPRLVRPSQTLSLTCAISGDSVFNNNAAWSWIRQSPSRGLEWLGRTYYRSKWLYDYAVSVKSRITVNPDTSRNQFTLQLNSVTPEDTALYYCARGYSSSFDYWGQGTLVTVSSASTKGPSVFPLAPSSKSTSGGTAALGCLVKDYFPEPVTVSWNSGALTSGVHTFPAVLQSSGLYSLSSVVTVPSSSLGTQTYICNVNHKPSNTKVDKKVEPKSCDKTHTCPPCPAPEAAGGPSVFLFPPKPKDTLMISRTPEVTCVVVSVSHEDPEVKFNWYVDGVEVHNAKTKPREEQYNSTYRVVSVLTVLHQDWLNGKEYKCKVSNKALPAPIEKTISKAKGQPREPQVYVYPPSREEMTKNQVSLTCLVKGFYPSDIAVEWESNGQPENNYKTTPPVLDSDGSFALVSKLTVDKSRWQQGNVFSCSVMHEALHNHYTQKSLSLSPG
light: QSALTQPASVSGSPGQSITISCTGTSSNIGTYKFVSWYQQHPDKAPKVLLYEVSKRPSGVSSRFSGSKSGNTASLTISGLQAEDQADYHCVSYAGSGTLLFGGGTKLTVLGQPKAAPSVTLFPPSSEELQANKATLVCLISDFYPGAVTVAWKADSSPVKAGVETTTPSKQSNNKYAASSYLSLTPEQWKSHRSYSCQVTHEGSTVEKTVAPTECS
scFv: DIVMTQSPDSLAVSLGERATINCKSSQSVLHSSNNKNYLTWFQQKPGQPPKLLIYWASTRESGVPDRFSGSGSGTDFTLTISSLQAEDVAVYYCHQYYSTPPTFGQGTKVEIKGGSEGKSSGSGSESKSTGGSQVQLQQSGPGLVKPSQTLSLTCAISGDSVSSNSAAWNWIRQSPSRGLEWLGRTYYRSKWYNDYAVSVKSRITINPDTSKNQISLQLNSVTPEDTAVYYCAGDRRYGIVGLPFAYWGQGTLVTVSSEPKSSDKTHTCPPCPAPEAAGGPSVFLFPPKPKDTLMISRTPEVTCVVVSVSHEDPEVKFNWYVDGVEVHNAKTKPREEQYNSTYRVVSVLTVLHQDWLNGKEYKCKVSNKALPAPIEKTISKAKGQPREPQVYVLPPSREEMTKNQVSLLCLVKGFYPSDIAVEWESNGQPENNYLTWPPVLDSDGSFFLYSKLTVDKSRWQQGNVFSCSVMHEALHNHYTQKSLSLSPG
B2: HC3B216 (CD3B376-Fab-Fc x MHGB737-scFv-Fc) (bispecific antibody, human IgG1, lambda, L234A L235A)
heavy: QVQLQQSGPRLVRPSQTLSLTCAISGDSVFNNNAAWSWIRQSPSRGLEWLGRTYYRSKWLYDYAVSVKSRITVNPDTSRNQFTLQLNSVTPEDTALYYCARGYSSSFDYWGQGTLVTVSSASTKGPSVFPLAPSSKSTSGGTAALGCLVKDYFPEPVTVSWNSGALTSGVHTFPAVLQSSGLYSLSSVVTVPSSSLGTQTYICNVNHKPSNTKVDKKVEPKSCDKTHTCPPCPAPEAAGGPSVFLFPPKPKDTLMISRTPEVTCVVVSVSHEDPEVKFNWYVDGVEVHNAKTKPREEQYNSTYRVVSVLTVLHQDWLNGKEYKCKVSNKALPAPIEKTISKAKGQPREPQVYVYPPSREEMTKNQVSLTCLVKGFYPSDIAVEWESNGQPENNYKTTPPVLDSDGSFALVSKLTVDKSRWQQGNVFSCSVMHEALHNHYTQKSLSLSPGK
light: QSALTQPASVSGSPGQSITISCTGTSSNIGTYKFVSWYQQHPDKAPKVLLYEVSKRPSGVSSRFSGSKSGNTASLTISGLQAEDQADYHCVSYAGSGTLLFGGGTKLTVLGQPKAAPSVTLFPPSSEELQANKATLVCLISDFYPGAVTVAWKADSSPVKAGVETTTPSKQSNNKYAASSYLSLTPEQWKSHRSYSCQVTHEGSTVEKTVAPTECS
scFv: not shown
B3: HC3B124 (CD3B219-Fab-Fc x MHGB732-scFv-Fc) (bispecific antibody, human IgG1, lambda, L234A L235A)
heavy: EVQLVESGGGLVQPGGSLRLSCAASGFTFNTYAMNWVRQAPGKGLEWVARIRSKYNNYATYYAASVKGRFTISRDDSKNSLYLQMNSLKTEDTAVYYCVRHGNFGNSYVSWFAYWGQGTLVTVSSASTKGPSVFPLAPSSKSTSGGTAALGCLVKDYFPEPVTVSWNSGALTSGVHTFPAVLQSSGLYSLSSVVTVPSSSLGTQTYICNVNHKPSNTKVDKKVEPKSCDKTHTCPPCPAPEAAGGPSVFLFPPKPKDTLMISRTPEVTCVVVSVSHEDPEVKFNWYVDGVEVHNAKTKPREEQYNSTYRVVSVLTVLHQDWLNGKEYKCKVSNKALPAPIEKTISKAKGQPREPQVYVYPPSREEMTKNQVSLTCLVKGFYPSDIAVEWESNGQPENNYKTTPPVLDSDGSFALVSKLTVDKSRWQQGNVFSCSVMHEALHNHYTQKSLSLSPG
light: QTVVTQEPSLTVSPGGTVTLTCRSSTGAVTTSNYANWVQQKPGQAPRGLIGGTNKRAPGTPARFSGSLLGGKAALTLSGVQPEDEAEYYCALWYSNLWVFGGGTKLTVLGQPKAAPSVTLFPPSSEELQANKATLVCLISDFYPGAVTVAWKADSSPVKAGVETTTPSKQSNNKYAASSYLSLTPEQWKSHRSYSCQVTHEGSTVEKTVAPTECS
scFv: DIVMTQSPDSLAVSLGERATINCKSSQSVLHSSNNKNYLTWFQQKPGQPPKLLIYWASTRESGVPDRFSGSGSGTDFTLTISSLQAEDVAVYYCHQYYSTPPTFGQGTKVEIKGGSEGKSSGSGSESKSTGGSQVQLQQSGPGLVKPSQTLSLTCAISGDSVSSNSAAWNWIRQSPSRGLEWLGRTYYRSKWYNDYAVSVKSRITINPDTSKNQISLQLNSVTPEDTAVYYCAGDRRYGIVGLPFAYWGQGTLVTVSSEPKSSDKTHTCPPCPAPEAAGGPSVFLFPPKPKDTLMISRTPEVTCVVVSVSHEDPEVKFNWYVDGVEVHNAKTKPREEQYNSTYRVVSVLTVLHQDWLNGKEYKCKVSNKALPAPIEKTISKAKGQPREPQVYVLPPSREEMTKNQVSLLCLVKGFYPSDIAVEWESNGQPENNYLTWPPVLDSDGSFFLYSKLTVDKSRWQQGNVFSCSVMHEALHNHYTQKSLSLSPG
B4: HC3B123 (CD3W246-Fab-Fc x MHGB732-LH-scFv-Fc) (bispecific antibody, human IgG1, kappa, L234A L235A)
heavy: EVQLVESGGGLVKPGGSLRLSCAASGFTFSRYNMNWVRQAPGKGLEWVSSISTSSNYIYYADSVKGRFTFSRDNAKNSLDLQMSGLRAEDTAIYYCTRGWGPFDYWGQGTLVTVSSASTKGPSVFPLAPSSKSTSGGTAALGCLVKDYFPEPVTVSWNSGALTSGVHTFPAVLQSSGLYSLSSVVTVPSSSLGTQTYICNVNHKPSNTKVDKKVEPKSCDKTHTCPPCPAPEAAGGPSVFLFPPKPKDTLMISRTPEVTCVVVSVSHEDPEVKFNWYVDGVEVHNAKTKPREEQYNSTYRVVSVLTVLHQDWLNGKEYKCKVSNKALPAPIEKTISKAKGQPREPQVYVYPPSREEMTKNQVSLTCLVKGFYPSDIAVEWESNGQPENNYKTTPPVLDSDGSFALVSKLTVDKSRWQQGNVFSCSVMHEALHNHYTQKSLSLSPGK
light: DIQMTQSPSSLSASVGDRVTITCRARQSIGTAIHWYQQKPGKAPKLLIKYASESISGVPSRFSGSGSGTDFTLTISSVQPEDFATYYCQQSGSWPYTFGQGTKLEIKRTVAAPSVFIFPPSDEQLKSGTASVVCLLNNFYPREAKVQWKVDNALQSGNSQESVTEQDSKDSTYSLSSTLTLSKADYEKHKVYACEVTHQGLSSPVTKSFNRGEC
scFv: DIVMTQSPDSLAVSLGERATINCKSSQSVLHSSNNKNYLTWFQQKPGQPPKLLIYWASTRESGVPDRFSGSGSGTDFTLTISSLQAEDVAVYYCHQYYSTPPTFGQGTKVEIKGGSEGKSSGSGSESKSTGGSQVQLQQSGPGLVKPSQTLSLTCAISGDSVSSNSAAWNWIRQSPSRGLEWLGRTYYRSKWYNDYAVSVKSRITINPDTSKNQISLQLNSVTPEDTAVYYCAGDRRYGIVGLPFAYWGQGTLVTVSSEPKSSDKTHTCPPCPAPEAAGGPSVFLFPPKPKDTLMISRTPEVTCVVVSVSHEDPEVKFNWYVDGVEVHNAKTKPREEQYNSTYRVVSVLTVLHQDWLNGKEYKCKVSNKALPAPIEKTISKAKGQPREPQVYVLPPSREEMTKNQVSLLCLVKGFYPSDIAVEWESNGQPENNYLTWPPVLDSDGSFFLYSKLTVDKSRWQQGNVFSCSVMHEALHNHYTQKSLSLSPG
B5: HC3B214 (CD3W246-Fab-Fc x MHGB737-scFv-Fc) (bispecific antibody, human IgG1, kappa, L234A L235A)
heavy: EVQLVESGGGLVKPGGSLRLSCAASGFTFSRYNMNWVRQAPGKGLEWVSSISTSSNYIYYADSVKGRFTFSRDNAKNSLDLQMSGLRAEDTAIYYCTRGWGPFDYWGQGTLVTVSSASTKGPSVFPLAPSSKSTSGGTAALGCLVKDYFPEPVTVSWNSGALTSGVHTFPAVLQSSGLYSLSSVVTVPSSSLGTQTYICNVNHKPSNTKVDKKVEPKSCDKTHTCPPCPAPEAAGGPSVFLFPPKPKDTLMISRTPEVTCVVVSVSHEDPEVKFNWYVDGVEVHNAKTKPREEQYNSTYRVVSVLTVLHQDWLNGKEYKCKVSNKALPAPIEKTISKAKGQPREPQVYVYPPSREEMTKNQVSLTCLVKGFYPSDIAVEWESNGQPENNYKTTPPVLDSDGSFALVSKLTVDKSRWQQGNVFSCSVMHEALHNHYTQKSLSLSPGK
light: DIQMTQSPSSLSASVGDRVTITCRARQSIGTAIHWYQQKPGKAPKLLIKYASESISGVPSRFSGSGSGTDFTLTISSVQPEDFATYYCQQSGSWPYTFGQGTKLEIKRTVAAPSVFIFPPSDEQLKSGTASVVCLLNNFYPREAKVQWKVDNALQSGNSQESVTEQDSKDSTYSLSSTLTLSKADYEKHKVYACEVTHQGLSSPVTKSFNRGEC
scFv: not shown
B6: HC3B230 (CD3B219-LH-scFv-Fc x MHGB732-Fab-Fc) (bispecific antibody, human IgG1, kappa, L234A L235A)
scFv: QTVVTQEPSLTVSPGGTVTLTCRSSTGAVTTSNYANWVQQKPGQAPRGLIGGTNKRAPGTPARFSGSLLGGKAALTLSGVQPEDEAEYYCALWYSNLWVFGGGTKLTVLGGSEGKSSGSGSESKSTGGSEVQLVESGGGLVQPGGSLRLSCAASGFTFNTYAMNWVRQAPGKGLEWVARIRSKYNNYATYYAASVKGRFTISRDDSKNSLYLQMNSLKTEDTAVYYCVRHGNFGNSYVSWFAYWGQGTLVTVSSEPKSSDKTHTCPPCPAPEAAGGPSVFLFPPKPKDTLMISRTPEVTCVVVSVSHEDPEVKFNWYVDGVEVHNAKTKPREEQYNSTYRVVSVLTVLHQDWLNGKEYKCKVSNKALPAPIEKTISKAKGQPREPQVYVYPPSREEMTKNQVSLTCLVKGFYPSDIAVEWESNGQPENNYKTTPPVLDSDGSFALVSKLTVDKSRWQQGNVFSCSVMHEALHNHYTQKSLSLSPG
heavy: QVQLQQSGPGLVKPSQTLSLTCAISGDSVSSNSAAWNWIRQSPSRGLEWLGRTYYRSKWYNDYAVSVKSRITINPDTSKNQISLQLNSVTPEDTAVYYCAGDRRYGIVGLPFAYWGQGTLVTVSSASTKGPSVFPLAPSSKSTSGGTAALGCLVKDYFPEPVTVSWNSGALTSGVHTFPAVLQSSGLYSLSSVVTVPSSSLGTQTYICNVNHKPSNTKVDKKVEPKSCDKTHTCPPCPAPEAAGGPSVFLFPPKPKDTLMISRTPEVTCVVVSVSHEDPEVKFNWYVDGVEVHNAKTKPREEQYNSTYRVVSVLTVLHQDWLNGKEYKCKVSNKALPAPIEKTISKAKGQPREPQVYVLPPSREEMTKNQVSLLCLVKGFYPSDIAVEWESNGQPENNYLTWPPVLDSDGSFFLYSKLTVDKSRWQQGNVFSCSVMHEALHNHYTQKSLSLSPG
light: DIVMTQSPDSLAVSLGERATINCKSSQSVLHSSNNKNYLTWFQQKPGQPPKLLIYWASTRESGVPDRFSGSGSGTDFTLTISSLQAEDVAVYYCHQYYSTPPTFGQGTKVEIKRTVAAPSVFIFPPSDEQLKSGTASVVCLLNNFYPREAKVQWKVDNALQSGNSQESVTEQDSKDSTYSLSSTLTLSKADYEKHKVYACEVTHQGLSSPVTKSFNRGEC
B7: MHGB665/MHGB732 (one printed row for both names), IgG1 mAb (antibody, V domains shown)
VH: QVQLQQSGPGLVKPSQTLSLTCAISGDSVSSNSAAWNWIRQSPSRGLEWLGRTYYRSKWYNDYAVSVKSRITINPDTSKNQISLQLNSVTPEDTAVYYCAGDRRYGIVGLPFAYWGQGTLVTVSS
VL: not shown
notes: tested as IgG1 mAb

In one experiment the target is HLA-G on NCI-H2009-b2m target cells (human, UniProt P17693 25-338). The experiment can be described thus: cell-based or functional assay.
For B1, the “Cytotoxicity, EC50 (M); T cell-mediated cytotoxicity against NCI-H2009-b2m cells, 72 hr, E:T 3:1” value (from here on “Cytotoxicity, EC50 (M)”) turned out to be 5.65e-11 M.

Take B2: the “Cytotoxicity, EC50 (M)” value was determined as 1.9e-09 M.

For the molecule B3, the “Cytotoxicity, EC50 (M)” value is 3.85e-12 M.

On to B4, for which the “Cytotoxicity, EC50 (M)” value was determined as 3.24e-12 M.

B5: the “Cytotoxicity, EC50 (M)” value came out at 1.38e-10 M.

In the case of B6, the “Cytotoxicity, EC50 (M)” value amounted to 9.92e-12 M.

The target of a further experiment is T1, HLA-G1 on K562 cells (K562-HLA-G) (human).
T1 construct: also called cells expressing HLA-G
The experiment can be described thus: flow cytometry; IgG1 mAb on cells expressing HLA-G.
Protocol: Briefly, 1.5×10⁷ cells were washed 2 times with 1×PBS and resuspended in 7 mL of 1×PBS and incubated for 10 min. After incubation, 8 mL of fetal bovine serum (FBS) were added, cells were washed by centrifugation at 300×g for 5 min and resuspended at 1×10⁶ cells/mL in DMEM supplemented with 10% FBS. […] After incubation, 150 μL of staining buffer were added and cells were washed by centrifugation at 300×g for 5 min. Cells were resuspended in 200 μL of running buffer (staining buffer supplemented with 1 mM EDTA, 0.1% (v/v) pluronic acid) and washed by centrifugation at 300×g for 5 min. Cells were resuspended in 30 mL of running buffer and analyzed for antibody binding by flow cytometry.
In the case of B7, the “Geomean fluorescence signal (maximum value for binding)” value amounted to 632000.
